# In patent US20220025070A1 (Novartis, published 2022):
# Positions count from the first letter of the chain named.
# B1: anti-FXI/FXIa antibody NOV1401 (antibody, human IgG1, lambda, V domains shown)
# VH: QVQLLESGGGLVQPGGSLRLSCAASGFTFSTAAMSWVRQAPGKGLEWVSGISGSGSSTYYADSVKGRFTISRDNSKNTLYLQMNSLRAEDTAVYYCARELSYLYSGYYFDYWGQGTLVTVSS
# VL: QSVLTQPPSASGTPGQRVTISCSGSSSNIGSNDVSWYQQLPGTAPKLLIYKNYNRPSGVPDRFSGSKSGTSASLAISGLQSEDEADYYCSAWDQRQFDVVFGGGTKLTVLG
# notes: Captured through Fc in Octet, free in solution in SET (biotinylated NOV1401 used only on the detection plate), amine-coupled in SPR; also called anti-Factor XI antibody NOV1401; target antibody
# B2: anti-NOV1401 Fab IDT1 (parental, first generation) (Fab, V domains shown)
# VH: QVQLLESGGGLVQPGGSLRLSCAASGFTFSDYAMSWVRQAPGKGLEWVSVIDYSSSNTYYADSVKGRFTISRDNSKNTLYLQMNSLRAEDTAVYYCAREGYSYRSIRFDYWGQGTLVTVSS
# VL: DIQMTQSPSSLSASVGDRVTITCRASQSISSNLNWYQQKPGKAPKLLIYAASNLQSGVPSRFSGSGSGTDFTLTISSLQPEDFATYYCLQFDHTPFTFGQGTKVEIKR
# notes: also called parental Fab; parental antibody IDT1
# B3: anti-NOV1401 Fab IDT1B, E. coli format (Fab, V domains shown)
# VH: B2 VH with Q1E, V50T, D52S, S54L, S55G, S56Q, N57E, T58K, Y59H
# VL: B2 VL
# B4: anti-NOV1401 Fab IDT1D (HC1 + LC2) (Fab, V domains shown)
# VH: B2 VH with V50T, D52A, S54V, S55G, S56A, N57P, Y59H
# VL: B2 VL with F91Y, D92Y, T94L, F96Y
# notes: Cross-clone: heavy chain of IDT1C with light chain of IDT1A; expressed in 293 HEK cells; also called 1DT1D
# B5: anti-NOV1401 Fab IDT1C, mammalian format (HC1 + LC1) (Fab, V domains shown)
# VH: B2 VH with V50T, D52A, S54V, S55G, S56A, N57P, Y59H
# VL: B2 VL
# B6: anti-NOV1401 Fab IDT1A, E. coli format (Fab, V domains shown)
# VH: B2 VH with Q1E
# VL: B2 VL with F91Y, D92Y, T94L, F96Y
# B7: anti-NOV1401 Fab IDT1E (HC2 + LC2) (Fab, V domains shown)
# VH: B2 VH with V50T, D52S, S54L, S55G, S56Q, N57E, T58K, Y59H
# VL: B2 VL with F91Y, D92Y, T94L, F96Y
# notes: Cross-clone: heavy chain of IDT1B with light chain of IDT1A; expressed in 293 HEK cells
# Tests used:
# [1] = target: B4; assay: SET: NOV1401 titrated against a constant Fab concentration in solution, free Fab captured on a biotin-NOV1401 streptavidin plate and detected with anti-human kappa-HRP
# Experimental: (§1) 14 serial 2-fold dilutions of NOV1401 (from 0.1 pM to 1 nM) were prepared in assay buffer (DPBS (Life Technologies) containing 0.5% BSA and 0.02% Tween-20), and a constant concentration of anti-NOV1401 Fab was added (10 pM, 20 pM or 40 pM). A volume of 60 μl/well of each NOV1401-anti-NOV1401 mix was dispensed in triplicates to a 384-well polypropylene microtiter plate (polypropylene MTP: Greiner, Cat. #781280). Assay buffer served as a negative control and a sample containing only anti-NOV1401 served as a positive control (Bmax). The plate was sealed and incubated overnight (o/n, at least 20 h) at room temperature (RT) on a shaker. A 384-well streptavidin (SA) plate from Life Technologies (Cat. #15505) was coated with 30 μl/well of Biotin-NOV1401 diluted in assay buffer for 2 h at RT on a shaker, then washed three times with wash buffer (PBS containing 0.05% Tween 20). After that 30 μl/well of the equilibrated NOV1401-anti-NOV1401 mix was transferred from the polypropylene MTP (Greiner) to the coated SA plate and incubated for 30 min at RT on a shaker. After an additional wash step, 30 μl/well anti-human Kappa LC-HRP detection antibody (BETHYL, Cat. #A80-115P; 0.05 μg/ml diluted in assay buffer) was added to each well and incubated for 60 min at RT on a shaker. The SA plate was washed, and 30 μl/well LumiGLO read buffer (KPL, Cat. #54-61-01; LumiGLO Peroxidase Chemiluminescent Substrate) was added and incubated for 1 min at RT. RLU signal was measured by the SPECTRAMAXM5 (Molecular Devices, Sunnyvale, Calif. USA).
# (§2) KD and Bₘₐₓ were set as variables to be fitted by GraphPad Prism 7.03.
# [2] = target: B5; assay: as above
# Experimental: as §1, §2
# [3] = target: B7; assay: as above
# Experimental: as §1, §2
# [4] = target: B1; assay: SPR (ProteOn XPR36), NOV1401 amine-coupled, Fab as analyte, 25 C, Langmuir 1:1
# Experimental: SPR binding experiments were performed on a ProteOn XPR36 instrument (Bio-Rad Laboratories, Inc.) in PBS/T buffer (50 mM phosphate, 150 mM NaCl, pH 7.4, 0.05% v/v Tween-20) at 25° C. NOV1401 (‘Ligand’) was immobilized onto an activated ProteOn GLC sensor chip (Bio-Rad Laboratories, Inc.) using standard amine coupling procedures as described by the manufacturer. Briefly, NOV1401 was injected at a concentration of […] in 20 mM sodium acetate, pH 5.0 and at a flow rate of 30 μl/min for 10 min. Unreacted groups were blocked by injecting 1 M ethanolamine.
# For kinetic studies anti-NOV1401 Fabs (‘Analytes’) were diluted in PBS/T buffer to generate a dilution series with concentrations ranging from 0.125-4 nM. Fabs were injected onto surfaces with immobilized NOV1401 at a flow rate of 100 μL/min and sensorgrams were recorded for association and dissociation times of 220 s and 1800 s, respectively. Blank surfaces were used for background corrections. There was no need to regenerate surfaces since the ProteOn protein interaction array system allows to run up to six binding experiments on an identical surface in parallel.
# Data processing and analysis including kₒₙ, koff, and KD determination were performed with the ProteOn Managerrm software version 3.1.0.6. Sensorgrams were fitted by applying a Langmuir 1:1 binding model (Rmax set at global) and dissociation constants were calculated from kₒₙ and koff.
# [5] = target: B1; assay: solution equilibrium titration (SET), constant Fab with titrated NOV1401, RT, 1:1 fit, average
# Experimental: as §1
# (§3) All measurements were performed as triplicates and average RLU signals were calculated. Data were baseline-adjusted by subtracting the value for the lowest concentration from all data points and plotted against the corresponding NOV1401 concentration. The KD was determined by non-linear curve fitting using a 1:1 fit model as shown in Equation (according to Haenel et al., 2005, Anal Biochem. 339(1):182-4):
# as §2
# [6] = target: B1; assay: Octet bio-layer interferometry, NOV1401 captured on anti-human IgG Fc (AHC) sensors, Fab at 25-400 nM in solution
# Experimental: Affinity assessments were performed via Bio-Layer Interferometry technology. Anti-Human IgG Fc Capture (AHC) biosensors (Fortebio, Ref. 18-5060) were used to capture NOV1401. […] Buffer (Fortebio, Ref. 18-5032) alone was used for background (0 nM) determination. Fab association and dissociation were each recorded by measuring the change in layer thickness (in nanometers, nm) with time for 800 s each, all under computer control.
# [7] = target: B1; assay: solution equilibrium titration (SET), 1:1 fit, average KD printed in the panel
# Experimental: as §1, with “A” for “14 serial 2-fold dilutions of NOV1401 (from 0.1 pM to 1 nM) were prepared in assay buffer (DPBS (Life Technologies) containing 0.5% BSA and 0.02% Tween-20), and a constant concentration of anti-NOV1401 Fab was added (10 pM, 20 pM or 40 pM). A”
# as §3, §2
# [8] = target: B1; assay: cell-based or functional assay
Binder,kon [4] [M⁻¹ s⁻¹],Kd [5] [pM],Kd [7] [pM],"aPTT reversal, NOV1401/anti-NOV1401 ratio (n/n) 1/3 [8] [%]","aPTT reversal, NOV1401/anti-NOV1401 ratio (n/n) 1/9 [8] [%]","aPTT reversal, NOV1401/anti-NOV1401 ratio (n/n) 1/30 [8] [%]",also measured
B1,,,,,,,IC50 (read off the curve) [1]: ~20 pM; IC50 (read off the curve) [2]: 10 to 20 pM; IC50 (read off the curve) [3]: ~10 pM
B2,550000,110,,,,,Kd [4]: 440 pM; koff [4]: 0.00024 s⁻¹
B3,,,,,,,binding result [6]: binds
B4,440000,,2.5,63,72,78,
B5,250000,9.6,9.6,79,80,78,
B6,,,,,,,binding result [6]: binds
B7,690000,2.5,7,72,84,83,
